{"source": "patent US6797264B1", "about": "“Medicinal product and method for treatment of conditions affecting neural stem cells or progenitor cells” (Cellartis AB, priority 1998, dated 2004)", "molecules": {"B1": {"name": "GH: Recombinant bovine growth hormone, given 1 mg/kg/day subcutaneously together with cortisol and L-thyroxine (protein, UniProt P01246 27-217, looked up)", "Somatotropin": "AFPAMSLSGLFANAVLRAQHLHQLAADTFKEFERTYIPEGQRYSIQNTQVAFCFSETIPAPTGKNEAQQKSDLELLRISLLLIQSWLGPLQFLSRVFTNSLVFGTSDRVYEKLKDLEEGILALMRELEDGTPRAGQILKQTYDKFDTNMRSDDALLKNYGLLSCFRKDLHKTETYLRVMKCRRFGEASCAF"}}, "key": {"[1]": {"system": "progenitor cells in the dentate gyrus", "experiment": "BrdU-positive cell proliferation in normal rats treated with GH", "type": "in vivo, Fisher rats", "details": "normal animals treated one week with GH, compared with normal controls and with hypophysectomized animals substituted one week then unsubstituted 3 weeks", "description": "(§1) The rats had free access to standard laboratory chow and water. Hormonal treatment started 7-10 days after hyophysectomy. All the hypophysectomized rats were given cortisol phosphate (400 μg/kg/day; Solu-Cortef, Upjohn, Puurs, Belgium) and L-thyroxine (10 μg/kg/day; Sigma, USA) diluted in saline as a daily subcutaneous injection (at 0800 h). Recombinant bovine GH (bGH) was diluted in 0.05 M phosphate buffer, pH 8.6, with 1.6% glycerol and 0.02% sodium azide. GH 1 mg/kg/day was given as one daily subcutaneous injection at 24 h intervals. The treatment continued for seven days. Thereafter the rats were sacrificed and the brains taken out and prepared for immunohistochemistry.\nTen hypophysectomized rats were substituted with only cortisole and L-thyroxine. Fifteen hypophysectomized rats were substituted with cortisole, L-thyroxine and GH. […] The thymidine analog BrdU is incorporated into the genetic material upon mitotic division whereafter it can be detected immunohistochemically in the resulting cells. […]\n(§2) The number of BrdU positive cells in the dentate gyrus of the hippocampus were counted using unbiased counting techniques. […]\nThe total number of BrdU positive cells in the granule cell layer, the subgranular layer and the hilus and their corresponding sample volumes were determined in 7-9 coronal sections, […], that contained the dentate gyrus. […]"}, "[2]": {"system": "progenitor cells in the dentate gyrus", "experiment": "BrdU-positive (newborn) cells in the dentate gyrus of hypophysectomized rats", "type": "in vivo, Fisher rats", "source_text": "In this example, the density of BrdU-positive cells in the dentate gyrus of hypophysectomized (Hx) rate treated according to the invention with growth hormone (GH), cortisol (C), and L-thyroxine (T) was compared to the density of BrdU-positive cells in the dentate gyrus of hypophysectomized rats treated with cortisol (C), and L-thyroxine (T), and to the density of the same cells for an untreated unoperated control group.\nFisher rats (Harlan Sprague Dawley) which were inact or hypophysectomized at 50 days of age were mainained under standardized conditions of temperature (24-26° C.), humidity (50-60%) and with lights on between 0500 and 1900 h.\nas §1\nTen hypophysectomized rats were substituted with only cortisole and L-thyroxine. […] The thymidine analog BrdU is incorporated into the genetic material upon mitotic division whereafter it can be detected immunohistochemically in the resulting cells. […]\nas §2\nFor the immunofluorescence, sections were treated for DNA denaturation as described above, followed by incubation in TBS-TS for 30 min. Thereafter the sections were incubated with mouse-anti-Calbindin-D28k, 1:2000 (Sigma) for 16 h at 4° C. and was detected with a Texas red conjugated donkey anti-mouse IgG. BrdU was detected with a FITC conjugated rabbit anti-BrdU antibody. […]"}}, "data": [{"molecule": "B1", "values": [{"measurement": "proliferation", "setting": "[1]", "value": "increased"}, {"measurement": "rate of proliferation of progenitor cells", "setting": "[2]; hypophysectomized animals treated with cortisol and L-thyroxine, quantified after one week of substitution", "value": "significantly increased"}, {"measurement": "granulae cell neurons", "setting": "[2]; hypophysectomized animals, cortisone, thyroxine and GH vs only cortisone and thyroxine, four weeks after the last BrdU injection, FIG. 2", "value": "significantly more granulae cell neurons"}, {"measurement": "number of newborn cells in the dentate gyrus", "setting": "[2]; hypophysectomized rats, GH 1 mg/kg/day s.c. plus cortisone and thyroxine, after 7 days, compared to only cortisone and thyroxine, FIG. 1", "value": "significantly increased"}]}]}
